We go through 12 molecules from patent US20240181050A1 (COMPASS THERAPEUTICS, published 2024).

T1: mouse CD137 (equilibrium cell-binding assay) (mouse, UniProt P20334 24-256)
T1 construct: whole, on cells; The cells are not described; also called mCD137
T1 sequence (looked up): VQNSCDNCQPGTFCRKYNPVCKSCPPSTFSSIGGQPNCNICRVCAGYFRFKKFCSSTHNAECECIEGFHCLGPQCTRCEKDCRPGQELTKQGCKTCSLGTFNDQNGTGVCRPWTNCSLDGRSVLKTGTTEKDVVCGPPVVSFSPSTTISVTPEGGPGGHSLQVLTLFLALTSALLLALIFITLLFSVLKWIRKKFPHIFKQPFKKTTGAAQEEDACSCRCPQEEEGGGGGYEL

B1: mAb1 wild type, reference of the CDRH3 alanine scan (antibody, V domains shown)
VH: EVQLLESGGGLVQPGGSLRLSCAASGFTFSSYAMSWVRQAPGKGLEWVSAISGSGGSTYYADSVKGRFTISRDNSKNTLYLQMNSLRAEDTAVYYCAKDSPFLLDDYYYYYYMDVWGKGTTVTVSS
VL: DIQMTQSPSSVSASVGDRVTITCRASQGISSWLAWYQQKPGKAPKLLIYAASSLQSGVPSRFSGSGSGTDFTLTISSLQPEDFATYYCQQGHLFPITFGGGTKVEIK
notes: The derivatives were cloned into an aglyco-IgG1 expression vector (DID-2600); also called WT KD
B2: mAb1 alanine-substituted derivative Y(100G)A (antibody, IgG1, V domains shown)
VH: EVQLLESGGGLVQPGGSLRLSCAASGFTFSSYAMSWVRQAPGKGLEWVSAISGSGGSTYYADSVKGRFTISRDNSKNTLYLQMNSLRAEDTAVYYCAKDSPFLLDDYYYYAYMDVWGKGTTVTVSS
VL: B1 VL
notes: aglyco-IgG1 vector (DID-2600)
B3: mAb1 alanine-substituted derivative M(100I)A (antibody, IgG1, V domains shown)
VH: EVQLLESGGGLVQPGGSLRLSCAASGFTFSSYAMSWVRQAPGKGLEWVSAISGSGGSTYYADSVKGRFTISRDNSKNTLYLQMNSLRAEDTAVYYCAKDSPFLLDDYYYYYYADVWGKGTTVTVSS
VL: B1 VL
notes: aglyco-IgG1 vector (DID-2600)
B4: mAb1 alanine-substituted derivative Y(100H)A (antibody, IgG1, V domains shown)
VH: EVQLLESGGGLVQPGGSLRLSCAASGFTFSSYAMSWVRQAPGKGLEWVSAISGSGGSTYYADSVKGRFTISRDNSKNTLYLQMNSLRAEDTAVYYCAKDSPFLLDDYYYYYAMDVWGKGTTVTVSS
VL: B1 VL
notes: aglyco-IgG1 vector (DID-2600)
B5: mAb1 alanine-substituted derivative D(100B)A (antibody, IgG1, V domains shown)
VH: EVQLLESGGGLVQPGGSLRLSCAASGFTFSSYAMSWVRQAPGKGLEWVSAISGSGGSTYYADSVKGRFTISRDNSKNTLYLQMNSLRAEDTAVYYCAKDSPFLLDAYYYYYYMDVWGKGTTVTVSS
VL: B1 VL
notes: aglyco-IgG1 vector (DID-2600)
B6: mAb1 alanine-substituted derivative Y(100E)A (antibody, IgG1, V domains shown)
VH: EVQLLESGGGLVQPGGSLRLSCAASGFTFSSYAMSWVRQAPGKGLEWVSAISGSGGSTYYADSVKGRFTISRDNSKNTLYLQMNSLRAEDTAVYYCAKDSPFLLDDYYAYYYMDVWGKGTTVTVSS
VL: B1 VL
notes: aglyco-IgG1 vector (DID-2600)
B7: mAb1 alanine-substituted derivative Y(100C)A (antibody, IgG1, V domains shown)
VH: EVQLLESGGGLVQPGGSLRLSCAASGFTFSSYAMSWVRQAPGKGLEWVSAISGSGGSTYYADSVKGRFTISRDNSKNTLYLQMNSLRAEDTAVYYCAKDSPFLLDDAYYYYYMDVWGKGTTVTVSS
VL: B1 VL
notes: aglyco-IgG1 vector (DID-2600)
B8: mAb1 alanine-substituted derivative D95A (antibody, V domains shown)
VH: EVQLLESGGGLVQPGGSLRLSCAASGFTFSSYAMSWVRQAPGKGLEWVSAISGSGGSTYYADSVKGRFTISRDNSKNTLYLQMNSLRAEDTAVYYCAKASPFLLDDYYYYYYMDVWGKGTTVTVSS
VL: B1 VL
notes: aglyco-IgG1 vector (DID-2600)
B9: mAb1 alanine-substituted derivative L99A (antibody, IgG1, V domains shown)
VH: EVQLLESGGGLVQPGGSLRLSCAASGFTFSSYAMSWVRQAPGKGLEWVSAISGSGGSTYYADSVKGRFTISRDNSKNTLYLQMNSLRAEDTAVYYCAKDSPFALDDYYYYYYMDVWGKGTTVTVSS
VL: B1 VL
notes: aglyco-IgG1 vector (DID-2600)
B10: mAb1 alanine-substituted derivative S96A (antibody, IgG1, V domains shown)
VH: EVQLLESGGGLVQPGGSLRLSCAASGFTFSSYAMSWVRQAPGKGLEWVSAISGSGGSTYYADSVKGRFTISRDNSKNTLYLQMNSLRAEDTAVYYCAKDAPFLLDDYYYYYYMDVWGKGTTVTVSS
VL: B1 VL
notes: aglyco-IgG1 vector (DID-2600)
B11: mAb1 alanine-substituted derivative L100A (antibody, IgG1, V domains shown)
VH: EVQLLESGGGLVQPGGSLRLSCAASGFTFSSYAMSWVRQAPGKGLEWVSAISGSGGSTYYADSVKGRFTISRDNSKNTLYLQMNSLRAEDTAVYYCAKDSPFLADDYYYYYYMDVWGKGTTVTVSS
VL: B1 VL
notes: aglyco-IgG1 vector (DID-2600); Leucine at position 100 is changed to alanine
B12: mAb1 alanine-substituted derivative Y(100D)A (antibody, IgG1, V domains shown)
VH: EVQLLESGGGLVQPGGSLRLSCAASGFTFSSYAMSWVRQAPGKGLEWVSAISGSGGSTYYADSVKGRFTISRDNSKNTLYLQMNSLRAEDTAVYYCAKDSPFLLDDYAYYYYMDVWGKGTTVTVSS
VL: B1 VL
notes: aglyco-IgG1 vector (DID-2600)

The target of the first test is T2, human CD137 (recombinant, construct not stated) (human, UniProt Q07011 24-186).
T2 construct: also called huCD137; 4-1BB
The test is described as follows: Wasatch SPR kinetics, human CD137. A general note: In SPR one partner is held on a chip, and binding of the other changes the refractive index at the surface.
The Kd is the concentration at which binding is half-saturated. Take B1: the Kd was 1 nM.

As for B2, the binding result is “no binding”.

B3: the Kd stood at 1.8 nM.

As to B4, the binding result is listed as “no binding”.

Take B5: the Kd worked out at 1.3 nM.

As for B6, the binding result is reported as “no binding”.

For the molecule B7, the Kd was 1 nM.

With B8, the binding result is “no binding”.

Take B9: the Kd was determined as 2.7 nM.

For the molecule B10, the Kd amounted to 1.8 nM.

As for B11, the binding result is “no binding”.

In the next test the target is T1, mouse CD137 (equilibrium cell-binding …). Nature of the test: equilibrium cell-binding assay, mouse CD137.
B1 came in with a Kd of 11 nM.

In the case of B2, the binding result is “no binding”.

With B3, the Kd was 21 nM.

Regarding B4, the binding result is “no binding”.

For the molecule B5, binding was characterised by a dissociation constant (Kd) of 54 nM.

Turning to B6, the binding result was “no binding”.

B7 yielded a Kd of 25 nM.

B8: the binding result is “no binding”.

In turn, B9 yielded a Kd of 33 nM.

As to B12, binding was characterised by a dissociation constant (Kd) of 170 nM.

For the molecule B10, binding was put at a Kd of 40 nM.

For B11, the binding result was “no binding”.
